The values below come from US20250144178A1 (KANAPH THERAPEUTICS, published 2025).

The target of assay [1] is T1, mouse FAP (fibroblast activation protein alpha) overexpressed in B16F10 cells (B16F10-mFAP) (mouse, UniProt P97321 1-761).
T1 construct: whole, on cells; also called mouse FAP-expressing cell line
T1 sequence (looked up): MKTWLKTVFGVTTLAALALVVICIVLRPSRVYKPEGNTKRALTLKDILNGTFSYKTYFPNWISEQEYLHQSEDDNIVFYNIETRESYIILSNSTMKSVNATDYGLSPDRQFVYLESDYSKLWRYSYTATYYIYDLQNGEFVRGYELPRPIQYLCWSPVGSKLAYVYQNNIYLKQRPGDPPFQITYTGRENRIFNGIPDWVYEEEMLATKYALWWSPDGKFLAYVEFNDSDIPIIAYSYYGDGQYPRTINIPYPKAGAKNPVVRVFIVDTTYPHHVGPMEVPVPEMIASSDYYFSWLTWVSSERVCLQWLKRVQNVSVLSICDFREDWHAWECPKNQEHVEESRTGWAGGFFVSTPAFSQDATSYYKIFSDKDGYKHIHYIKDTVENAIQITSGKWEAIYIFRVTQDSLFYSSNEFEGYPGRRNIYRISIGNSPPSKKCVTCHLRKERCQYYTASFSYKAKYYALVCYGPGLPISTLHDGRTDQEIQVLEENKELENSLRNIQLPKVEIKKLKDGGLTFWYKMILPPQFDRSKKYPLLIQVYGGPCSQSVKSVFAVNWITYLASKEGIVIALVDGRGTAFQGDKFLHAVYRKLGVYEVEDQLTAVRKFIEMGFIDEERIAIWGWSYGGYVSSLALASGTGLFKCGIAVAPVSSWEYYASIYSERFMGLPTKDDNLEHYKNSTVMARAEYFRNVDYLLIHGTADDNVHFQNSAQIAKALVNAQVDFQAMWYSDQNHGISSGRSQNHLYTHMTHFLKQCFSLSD
Put plainly: flow cytometry on B16F10-mFAP cells, detection with anti-mouse IgG2a antibody. The method, then:
(§1) Specifically, the cell line was prepared by suspending in a FACS buffer solution at 1×10⁵ cells/100 μl, and treated with 1 μg of each T1.12m, T1.01m, T1.02m and T1.03m. The cells were washed twice with a FACS buffer solution. The cells were stained with an anti-mouse IgG2a antibody (Biolegend). The negative control was stained only with an anti-mouse IgG2a antibody (Biolegend). The expression rate of the stained cells was measured using BD LSR and analyzed using a FlowJo software.
A general note: Flow cytometry measures light scatter and fluorescence of single cells or particles in a stream.

Assay [2] concerns the target T2, B16F10.
T2 construct: not a protein target; also called parental B16F10 cells, without the transduced mouse FAP gene
Put plainly: flow cytometry on parental B16F10 cells, detection with anti-mouse IgG2a antibody. The protocol: as §1

In assay [3] the target is T1, mouse FAP (fibroblast activation …). Briefly: flow cytometry on B16F10-mFAP cells, 1 µg protein per 1x10^5 cells, anti-mouse IgG2a detection. The method, then: as §1
In assay [4] the target is T3, recombinant mouse FAP (mouse, UniProt P97321 26-761).
T3 construct: Soluble analyte in SPR
T3 sequence (looked up): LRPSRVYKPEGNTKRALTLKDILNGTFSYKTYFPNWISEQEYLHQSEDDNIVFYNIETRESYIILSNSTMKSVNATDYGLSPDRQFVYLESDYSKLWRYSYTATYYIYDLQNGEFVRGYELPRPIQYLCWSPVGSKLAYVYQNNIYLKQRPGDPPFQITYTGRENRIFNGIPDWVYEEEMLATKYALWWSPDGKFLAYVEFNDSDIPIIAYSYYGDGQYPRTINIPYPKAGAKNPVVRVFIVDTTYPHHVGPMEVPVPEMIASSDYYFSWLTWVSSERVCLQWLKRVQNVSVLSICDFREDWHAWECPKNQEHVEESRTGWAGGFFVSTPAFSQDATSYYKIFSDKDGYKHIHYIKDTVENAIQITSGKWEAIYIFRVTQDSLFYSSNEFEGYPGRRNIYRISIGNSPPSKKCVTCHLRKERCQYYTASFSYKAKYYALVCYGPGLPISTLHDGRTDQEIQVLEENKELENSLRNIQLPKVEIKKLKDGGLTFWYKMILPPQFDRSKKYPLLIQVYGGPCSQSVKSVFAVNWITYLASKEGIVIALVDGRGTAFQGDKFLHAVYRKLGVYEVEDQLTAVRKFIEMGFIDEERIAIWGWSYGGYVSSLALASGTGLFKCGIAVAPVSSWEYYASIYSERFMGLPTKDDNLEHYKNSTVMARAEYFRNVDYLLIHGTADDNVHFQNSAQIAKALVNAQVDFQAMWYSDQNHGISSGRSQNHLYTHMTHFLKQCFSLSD
Briefly: SPR, fusion protein captured by anti-mouse IgG (Fc) on a CM5 chip, mouse FAP as analyte 1.5625-100 nM, 1:1 binding model.

Where only a bound is given, the exact number is not on record here.

B1: T1.02m (anti-mu FAP/mu IL-12 mut1, mu IgG2a DANG) (bispecific antibody)
heavy: QVQLQQSGAELARPGASVNLSCKASGYTFTNNGINWLKQRTGQGLEWIGEIYPRSTNTLYNEKFKGKATLTADRSSNTAYMELRSLTSEDSAVYFCARTLTAPFAFWGQGTLVTVSAAKTTAPSVYPLAPVCGDTTGSSVTLGCLVKGYFPEPVTLTWNSGSLSSGVHTFPAVLQSDLYTLSSSVTVTSSTWPSQSITCNVAHPASSTKVDKKIEPRGPTIKPCPPCKCPAPNLLGGPSVFIFPPKIKDVLMISLSPIVTCVVVAVSEDDPDVQISWFVNNVEVHTAQTQTHREDYGSTLRVVSALPIQHQDWMSGKEFKCKVNNKDLPAPIERTISKPKGSVRAPQVYVLPPPEEEMTKKQVTLWCMVTDFMPEDIYVEWTNNGKTELNYKNTEPVLDSDGSYFMYSKLRVEKKNWVERNSYSCSVVHEGLHNHHTTKSFSRTPGK
light: QIVLTQSPAIMSASPGEKVTMTCSASSGVNFMHWYQQKSGTSPKRWIFDTSKLASGVPARFSGSGSGTSYSLTISSMEAEDAATYYCQQWSFNPPTFGGGTKLEIKRADAAPTVSIFPPSSEQLTSGGASVVCFLNNFYPKDINVKWKIDGSERQNGVLNSWTDQDSKDSTYSMSSTLTLTKDEYERHNSYTCEATHKTSTSPIVKSFNRNEC
chain: MWELEKDVYVVEVDWTPDAPGETVNLTCDTPEEDDITWTSDQRHGVIGSGKTLTITVKEFLDAGQYTCHKGGETLSHSHLLLHKKENGIWSTEILKNFKNKTFLKCEAPNYSGRFTCSWLVQRNMDLKFNIKSSSSSPDSRAVTCGMASLSAEKVTLDQRDYEKYSVSCQEDVTCPTAEETLPIELALEARQQNKYENYSTSFFIRDIIKPDPPKNLQMKPLKNSQVEVSWEYPDSWSTPHSYFSLKFFVRIQRAKEKMAETEEGCNQKGAFLVEKTSTEVQCKGGNVCVQAQDRYYNSSCSKWACVPCRVRSGGGGSGGGGSGGGGSRVIPVSGPARCLSQSRNLLKTTDDMVKTAREKLKHYSCTAEDIDHEDITRDQTSTLKTCLPLELHKNESCLATRETSSTTRGSCLPPQKTSLMMTLCLGSIYEDLKMYQTEFQAINAALQNHNHQQIILDKGMLVAIDELMQSLNHNGETLRQKPPVGEADPYRVKMKLCILLHAFSTRVVTINRVMGYLSSAGGGGSGGGGSEPRGPTIKPCPPCKCPAPNLLGGPSVFIFPPKIKDVLMISLSPIVTCVVVAVSEDDPDVQISWFVNNVEVHTAQTQTHREDYGSTLRVVSALPIQHQDWMSGKEFKCKVNNKDLPAPIERTISKPKGSVRAPQVYVLPPPEEEMTKKQVTLSCAVTDFMPEDIYVEWTNNGKTELNYKNTEPVLDSDGSYFMVSKLRVEKKNWVERNSYSCSVVHEGLHNHHTTKSFSRTPGK
notes: Mouse surrogate, knob-in-hole heterodimer
On to B1, for which the “percent of cells in the positive gate (mFAP-PE)” value in assay [1] amounted to 92.1%. Also, in assay [2], the “percent of cells in the positive gate (mFAP-PE)” value was determined as 1.37%. For the same molecule, the “percent of cells bound” value in assay [3] was ≥ 99%. In addition, in assay [4], the Kd (in general, the constant that tells how readily two partners part at equilibrium) is 1.53 nM; the koff (in general, a measure of how fast the partners let go of each other) came to 0.00014 s⁻¹; the kon (as a rule, a measure of how fast the partners come together) came out at 91500 M⁻¹ s⁻¹.
